In patent US20170082621A1:

Key:
[1] = biological target: HP-NAPY101H (Helicobacter pylori strain 26695) (UniProt P43313); assay: recombinant HP-NAP-based ELISA, antibody X at 600 ng/ml
[2] = biological target: HP-NAPE97GY101H (Helicobacter pylori strain 26695) (UniProt P43313); assay: as above
[3] = biological target: Helicobacter pylori neutrophil-activating protein (HP-NAP) of H. pylori 26695 (Helicobacter pylori strain 26695) (UniProt P43313); assay: cell-based or functional assay
[4] = biological target: HP-NAPY101H (Helicobacter pylori strain 26695) (UniProt P43313); assay: western blot of E. coli lysates, normalised by Ponceau S to wild-type HP-NAP
[5] = biological target: HP-NAPE97GY101H (Helicobacter pylori strain 26695) (UniProt P43313); assay: as above

With “antibody X, commercial IgG/M2 monoclonal antibody (Sigma, F-3165)” the ELISA signal compared to wild-type HP-NAP [1] was 60%, the ELISA signal compared to wild-type HP-NAP [2] was 33% and the inhibition of ROS production upon two hours of HP-NAP stimulation (H2DCF-DA fluorescence) [3] was 93.2%. For the same substance, the western-blot signal intensity compared to wild-type HP-NAP [4] was 11% and the western-blot signal intensity compared to wild-type HP-NAP [5] was 9%.
